Measurements: the supplement of paper PMC10724198
± gives the standard deviation of the averaged measurements.

Test system: Saccharomyces cerevisiae
Assay: protein stability index of tFT-peptide fusion (C-terminal peptide) (PSI (0-1 scale)); higher = more stable (slower turnover)
Settings: genetic background: das1 deletion; temperature: 30 C
Protocol: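 MPS profiling in S. cerevisiae of the yeast C-terminome library: the last 12 aa of each annotated ORF are fused to the C-terminus of a sfGFP-mCherry timer, after a GGGS linker. Cells are FACS-sorted into 8 mCherry/sfGFP bins and deep-sequenced. PSI runs from 0 (unstable) to 1 (stable); wild type and das1Δ backgrounds, two technical replicates each.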

| Sequence | protein stability index |
| --- | --- |
| EQLEEEFVRQEH [OSW7 C-terminal 12 aa] | 0.7319 ± 0.00083 |
| EQLEQDDGRKGG [LSM12 C-terminal 12 aa] | 0.682 ± 0.024 |
| EQNAALGQGLGR [TIM9 C-terminal 12 aa] | 0.70792 ± 0.00034 |
| EQNLEALAKSFF [BEM4 C-terminal 12 aa] | 0.734 ± 0.023 |
| EQSEQPEQHQDK [RPN10 C-terminal 12 aa] | 0.697 ± 0.018 |
| ERKPLDFLRTAK [MRPL39 C-terminal 12 aa] | 0.6743 ± 0.0021 |
| ESAKQRRDKQKN [ATG38 C-terminal 12 aa] | 0.7096 ± 0.003 |
| ESLQKNIKIETK [MUM3 C-terminal 12 aa] | 0.6981 ± 0.005 |
| ESVSYLFTHAPV [PRS2 C-terminal 12 aa] | 0.734 ± 0.0093 |
| ESYRDDSIEAED [NCR1 C-terminal 12 aa] | 0.6933 ± 0.001 |
| ETIAEEMDSVHT [YAL064W-B C-terminal 12 aa] | 0.682 ± 0.012 |
| ETNFWTAALEYE [THI20 C-terminal 12 aa] | 0.723 ± 0.011 |
| ETVGYEAYLENK [ADE2 C-terminal 12 aa] | 0.685 ± 0.014 |
| EVDIDSLLAKLN [RLP7 C-terminal 12 aa] | 0.7114 ± 0.0065 |
| EVLEVAEKFKEE [DOT5 C-terminal 12 aa] | 0.696 ± 0.011 |
| EYHQEFLHKHVR [CWC15 C-terminal 12 aa] | 0.726 ± 0.035 |
| EYPWEKPKTLKF [SAM1 C-terminal 12 aa] | 0.7167 ± 0.00082 |
| FADTRPFDEIYR [ATP23 C-terminal 12 aa] | 0.73 ± 0.00073 |
| FAFVVVKQEFIH [BYE1 C-terminal 12 aa] | 0.521 ± 0.015 |
| FASGKPIKKVKN [DYS1 C-terminal 12 aa] | 0.698 ± 0.0083 |
| FCKEKVYSKLLV [YNL103W-A C-terminal 12 aa] | 0.648 ± 0.015 |

| Sequence | protein stability index |
| --- | --- |
| FDTLIVHHFSSE [KHA1 C-terminal 12 aa] | 0.733 ± 0.01 |
| FEVMKFVNGLKV [RFX1 C-terminal 12 aa] | 0.5484 ± 0.0045 |
| FEWEDDESDEIA [ATG7 C-terminal 12 aa] | 0.7397 ± 0.004 |
| FFRLGWSTWLHY [YOR029W C-terminal 12 aa] | 0.502 ± 0.01 |
| FFRQWWDIIQSK [YMR316C-A C-terminal 12 aa] | 0.7 ± 0.025 |
| FGDNSKHKTDKI [BOI2 C-terminal 12 aa] | 0.712 ± 0.042 |
| FIENVLKKRNMK [LIP5 C-terminal 12 aa] | 0.7195 ± 0.0041 |
| FIFYSILPTNVI [YPR123C C-terminal 12 aa] | 0.594 ± 0.013 |
| FIKKWAHYYKKF [SBE22 C-terminal 12 aa] | 0.711 ± 0.026 |
| FKGFLENIDSYT [AIM22 C-terminal 12 aa] | 0.714 ± 0.021 |
| FKLHNETRCRNR [VPS71 C-terminal 12 aa] | 0.68 ± 0.017 |
| FKVASIANAQVR [ARC1 C-terminal 12 aa] | 0.689 ± 0.0093 |
| FLFSCMLYKIDP [YML089C C-terminal 12 aa] | 0.669 ± 0.027 |
| FLILVFVMKKNH [YDR018C C-terminal 12 aa] | 0.287 ± 0.0071 |
| FLKNFTNDTFDN [BCH1 C-terminal 12 aa] | 0.7055 ± 0.0035 |
| FPEKNIVNLKSA [CHA1 C-terminal 12 aa] | 0.6971 ± 0.0067 |
| FPVTLWSKVILK [YHR073W-A C-terminal 12 aa] | 0.569 ± 0.0092 |
| FRHNRSNKKLGC [GEX1 C-terminal 12 aa] | 0.725 ± 0.025 |
| FRPDEMNIVTKF [PRM15 C-terminal 12 aa] | 0.68 ± 0.022 |
| FRTDEVYAAWRD [KAE1 C-terminal 12 aa] | 0.6891 ± 0.0051 |
| FSIRSISKFIFT [YOR325W C-terminal 12 aa] | 0.649 ± 0.014 |

| Sequence | protein stability index |
| --- | --- |
| FSNLLWFDQNFA [STB4 C-terminal 12 aa] | 0.742 ± 0.014 |
| FSTEYLGLICTY [YLR232W C-terminal 12 aa] | 0.49388 ± 0.0004 |
| FTMSLAHCLMFS [YJL169W C-terminal 12 aa] | 0.636 ± 0.016 |
| FVAYTTLTFKKT [YMR001C-A C-terminal 12 aa] | 0.6649 ± 0.0001 |
| FVEGGDGKYVLN [YPL113C C-terminal 12 aa] | 0.688 ± 0.016 |
| FVKDEIHKDILD [PEX21 C-terminal 12 aa] | 0.7 ± 0.017 |
| FVKVIDYTSNGW [PBY1 C-terminal 12 aa] | 0.676 ± 0.0086 |
| FVLSISFRQEQT [YER172C-A C-terminal 12 aa] | 0.577 ± 0.042 |
| FYSLCEKGGYLK [BPT1 C-terminal 12 aa] | 0.679 ± 0.014 |
| FYSVFALMVIFV [YIP1 C-terminal 12 aa] | 0.178 ± 0.013 |
| GAAVGGALAFLI [DDR2 C-terminal 12 aa] | 0.702 ± 0.02 |
| GAIMGAAAFALL [TOS6 C-terminal 12 aa] | 0.699 ± 0.013 |
| GAQPHLYIPDED [USA1 C-terminal 12 aa] | 0.6896 ± 0.0026 |
| GCSLQISYARRD [GBP2 C-terminal 12 aa] | 0.706 ± 0.018 |
| GCVKMYKFDLND [MET30 C-terminal 12 aa] | 0.713 ± 0.044 |
| GDLLSLKGEIMQ [ALK2 C-terminal 12 aa] | 0.689 ± 0.022 |
| GDVSNLPYLDEL [QCR2 C-terminal 12 aa] | 0.694 ± 0.013 |
| GDYTVKQPEATK [AIM9 C-terminal 12 aa] | 0.703 ± 0.013 |
| GEDPYMDLMKEF [TPK3 C-terminal 12 aa] | 0.745 ± 0.013 |
| GEDTGPTVEEVD [SSA3 C-terminal 12 aa] | 0.682 ± 0.013 |
| GGGVLQLISYIL [YSY6 C-terminal 12 aa] | 0.706 ± 0.0057 |

| Sequence | protein stability index |
| --- | --- |
| GGKDKMVRLWTH [RSA4 C-terminal 12 aa] | 0.691 ± 0.011 |
| GGPFPYYFNTFC [YKL169C C-terminal 12 aa] | 0.704 ± 0.028 |
| GHSHKHKGHQKK [KRI1 C-terminal 12 aa] | 0.673 ± 0.008 |
| GIHPPEPIAAAA [KTI11 C-terminal 12 aa] | 0.3 ± 0.031 |
| GKNQWFFSKLRF [RPL27A C-terminal 12 aa] | 0.707 ± 0.0096 |
| GLKQKSTIVTVD [CDC5 C-terminal 12 aa] | 0.6917 ± 0.0015 |
| GLLVVFDRIDVK [MET7 C-terminal 12 aa] | 0.667 ± 0.015 |
| GLTLIGRQSDSI [RAD7 C-terminal 12 aa] | 0.7025 ± 0.0011 |
| GMYSRAYETHTL [ERG7 C-terminal 12 aa] | 0.7 ± 0.012 |
| GNAEFAASLLFQ [DDI1 C-terminal 12 aa] | 0.7205 ± 0.0066 |
| GNEPMEKFIQSL [YMR090W C-terminal 12 aa] | 0.694 ± 0.005 |
| GNSGGSNNSSWW [DED1 C-terminal 12 aa] | 0.71484 ± 0.00065 |
| GNTGSGGYDNAW [RPB3 C-terminal 12 aa] | 0.704 ± 0.052 |
| GPDAPLSKMKYE [SCS7 C-terminal 12 aa] | 0.684 ± 0.0086 |
| GQLLSGSCLLNM [YBR226C C-terminal 12 aa] | 0.686 ± 0.013 |
| GRPSMVPIAELK [MLH3 C-terminal 12 aa] | 0.672 ± 0.019 |
| GSGDEPDSKRRK [YCR051W C-terminal 12 aa] | 0.693 ± 0.044 |
| GTQVMYISEQKI [LSM6 C-terminal 12 aa] | 0.698 ± 0.0048 |
| GVEKYWGILSNE [SCW4 C-terminal 12 aa] | 0.723 ± 0.0089 |
